Laboratory results as given in patent US20030087394, “Insulin related transcription factor and uses thereof” (published 2003).

Target: RIPE3b1 47-kDa protein (mMafA), affinity purified and SDS-PAGE eluted (UniProt A0A1U7RCQ9 A0A1U7RCQ9:1-361)
Test: pulldown; streptavidin agarose affinity purification
Settings: tags: from HIT T-15 nuclear extract; label: 5' biotin top strand
Method: This HP fraction contained about 85% of the recovered RIPE3b 1 factor with a 2.5-fold purification. The RIPE3b binding factor was then affinity purified from the HP fraction using a 5′ biotinylated RIPE3b oligonucleotide and streptavidin agarose. The purified fractions were analyzed for binding to a rat insulin II-139 to -101 bp probe by EMSA [FIG. 3, (24)]. The −139 to −101 bp probe contains the RIPE3b and overlapping A2 elements. Five distinct factors (RIPE3b1, RIPE3b2 and three A2 specific complexes) can bind the −139 to −101 bp probe. Thus the −139 to −101 bp probe serves as a good indicator of the purification process. The RIPE3b1 binding activity was eluted in two fractions and was the predominant DNA binding activity in these fractions. RIPE3b1 binding activity was purified 95-fold as compared to the HP fraction […]. The purified fraction was next analyzed on a 10% SDS-PAGE gel along with the starting HIT T-15 nuclear extract and HP fraction. […] The regions corresponding to the individual protein bands were cut; the proteins were then eluted and analyzed for the RIPE3b1 binding activity. […]

Sequence of RIPE3b1 47-kDa protein (mMafA), affinity purified and SDS-PAGE eluted (A0A1U7RCQ9 entry or part of it): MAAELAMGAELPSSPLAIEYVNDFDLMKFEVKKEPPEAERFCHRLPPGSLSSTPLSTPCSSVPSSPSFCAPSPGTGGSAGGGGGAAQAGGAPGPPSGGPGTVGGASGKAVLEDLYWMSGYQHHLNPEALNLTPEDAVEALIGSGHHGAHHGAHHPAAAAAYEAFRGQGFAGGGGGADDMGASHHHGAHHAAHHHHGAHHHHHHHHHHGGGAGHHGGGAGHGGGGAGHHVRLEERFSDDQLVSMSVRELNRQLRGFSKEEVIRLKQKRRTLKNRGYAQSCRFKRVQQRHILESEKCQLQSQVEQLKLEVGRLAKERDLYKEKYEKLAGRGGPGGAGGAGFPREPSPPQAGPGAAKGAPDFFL

B1: biotinylated RIPE3b (-126 to -101) dimer (dsDNA)
DNA 1: TGACTGGAAACTGCAGCTTCAGCCCCTCTGGAAACTGCAGCTTCAGCCCCAC
DNA 2: GTGGGGCTGAAGCTGCAGTTTCCAGAGGGGCTGAAGCTGCAGTTTCCAGTCA
binding result: binds
